Measured values taken from patent publication US7012128B2, “Interaction between cyclin D1 and steroid receptor co-activators and uses thereof in assays” (TopoTarget UK Limited, priority 1998, dated 2006).

Key:
Format in all cases: cell-based
[1] = system: ER 1-535 and ER L543/544A mutants; assay: ERE-TATA-luciferase transactivation of AF-2 mutant ERs in COS-7 cells; conditions: COS-7, 1, 2.5, 5 μg SRC1-DN, 10 nM ligand
Protocol: FIG. 2. Effect of cyclin D1 on helix 12 mutants of ER. The effect of cyclin D1 on ER mutants was tested in COS-7 cells (A, B) and in U2-OS cells (C, D) in the presence of ligand. An ERE-TATA-luciferase reporter construct was used in transient transfections together with cyclin D1 and ER 1-535 (A, C) or ER L543/544A mutants (B, D). β-Galactosidase served as an internal control. The reporter activity was determined both in the presence (black bars) and in the absence (white bars) of 10 nM 17β-estradiol. The relative luciferase activity was calculated by normalizing to the b-galactosidase activity. The relative reporter activity of wild type ER in the presence of ligand was used as a reference and set at 100%. […] The transfection were performed in at least five separate experiments and expressed as average ±SD.
FIG. 3. Role of coactivators in cyclin D1—induced transactivation. • (A) Effect of a dominant negative form of SRC-1 (SRC1-DN) on ER transactivation. […] The relative activity was calculated by normalizing to the internal control and was divided by luciferase activity of ER (mutant) in the presence of ligand. The transfection for each set of conditions were done at least in four independent experiments and expressed as average ±SD. […]

wild type ER = assay: ERE-TATA-luciferase transactivation of wild type ER in COS-7 cells; conditions: COS-7, 3 μg SRC1-DN, 10 nM ligand
Protocol: FIG. 1. Mapping of the region of cyclin D1 required for ER-mediated transactivation. • (A) The effect of cyclin D1 deletion mutants on ER activation in the presence of ligand. The cyclin D1 derivatives used in this study are shown in the left panel; right side of Figure represents the relative capacity of the mutants to potentiate ERE-dependent transcription. ER-negative COS-7 cells were transfected with expression vectors for wild type ER (200 ng), cyclin D1 or cyclin D1 mutants (2.5 μg), an internal control §-galactosidase plasmid (0.5 μg) and an ERE-TATA-luciferase reporter (3 μg). The effect on ER transactivation of wild type cyclin D1 was set to 100%. These studies were performed in three separate experiments and expressed as mean values with standard deviation less then […]. The alignment of leucine-rich motif of ER with D-type cyclins are shown on the bottom; the leucine-rich motif in cyclin D1 is indicated as a dark box. The identifiers for the sequences shown are as follows: Cyclin D1 (SEQ ID NO:11), Estrogen receptor (SEQ ID NO:12), the Cyclin D2 (SEQ ID NO:13), and the Cyclin D3 (SEQ ID NO:14). • (B) ER activation by D-type cyclins, cyclin D1 L254/255A point mutant (D1-LALA) and SRC-1 in the presence of ligand. COS-7 cells were transfected with D-type cyclin expression vectors, cyclin D1 Leucine-to-Alanine point mutant (D1-LALA) or SRC-1 expression vector together with wild type ER expression vector, an ERE-TATA-luciferase reporter plasmid and the internal control β-galactosidase construct. Data are expressed as relative luciferase activity compared with basal ERE-luciferase activity of wild type ER and are normalized for transfection efficiencies.
FIG. 3. Role of coactivators in cyclin D1—induced transactivation. • (A) Effect of a dominant negative form of SRC-1 (SRC1-DN) on ER transactivation. SRC1-DN encoding amino acids 1245-1441 of SRC-1 (1, 2.5 and 5 μg) was introduced by transient transfection together with wild type ER (200 ng) and was tested for its ability to modulate ERE-dependent transcription. • (B) Effect of SRCI-DN on SRC-1 and TIF 2 mediated ER transactivation. SRC-1 (3 μg) or TIF-2 (3 μg) were transfected with SRC1-DN (3 μg) and tested for ER transactivation. • (C) Effect of SRC1-DN on cyclin D1-induced transactivation of ER 1-535 mutant. Cyclin D1 was cotransfected with SRC1-DN (1, 2.5, 5 μg) and tested for its effect on an ER harboring a deletion of coactivator binding site in helix 12 (ER 1-535). • (D) Effect of SRC1-DN on cyclin D1-induced transactivation of ER L543/544A mutant. Cyclin D1 and SRC1-DN (1, 2.5, 5 gg) were transfected and tested for the activity of ER helix 12 point mutant (ER L543/544A). The transient transfections (A-C) were performed in COS-7 cells, which were maintained in DMEM with 10 nM ligand. The relative activity was calculated by normalizing to the internal control and was divided by luciferase activity of ER (mutant) in the presence of ligand. The transfection for each set of conditions were done at least in four independent experiments and expressed as average ±SD.
To study how cyclin D1 activates ER, cyclin D1 deletion mutants were tested for their effect on ER-transactivation. COS-7 cells were transfected with cyclin D1 mutants, together with ER and a luciferase reporter gene construct driven by a minimal TATA promoter linked to an estrogen response element (ERE). […] This part of the protein is not involved in CDK interaction and is poorly conserved among the different cyclins. […] To test the relevance of this leucine-rich domain of cyclin D1 in ER activation, a cyclin D1 mutant was constructed in which leucines 254 and 255 were mutated to alanines (D1 L254/255A). This mutation in cyclin D1 is similar to the mutation in ER (ER L543/544A) that interferes with coactivator binding to AF-2 (Danielian et al., 1992). […]

[2] = target: E2F-1 transcription factor (Homo sapiens, UniProt Q01094); assay: Effect on E2F-1 transcription factor (data not shown)
Sequence of E2F-1 transcription factor (Q01094 whole entry): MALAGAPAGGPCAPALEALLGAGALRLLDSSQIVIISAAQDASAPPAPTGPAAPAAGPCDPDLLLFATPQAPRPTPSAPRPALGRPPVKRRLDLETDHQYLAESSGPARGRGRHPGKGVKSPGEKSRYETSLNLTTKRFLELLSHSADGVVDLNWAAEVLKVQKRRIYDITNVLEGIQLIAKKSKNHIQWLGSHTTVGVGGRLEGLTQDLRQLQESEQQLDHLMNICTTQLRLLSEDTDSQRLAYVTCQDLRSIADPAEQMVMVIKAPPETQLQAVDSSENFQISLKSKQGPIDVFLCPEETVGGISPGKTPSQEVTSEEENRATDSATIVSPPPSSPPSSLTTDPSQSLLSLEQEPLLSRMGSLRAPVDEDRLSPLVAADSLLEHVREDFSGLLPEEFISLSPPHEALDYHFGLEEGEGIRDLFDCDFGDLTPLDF

B1: SRC1-DN: dominant negative mutant of SRC-1 encoding amino acids 1245-1441 of SRC-1 (protein, UniProt Q15788 1245-1441, looked up, fragment)
chain: FAPSLSPGSSMVPMPIPPPQSSLLQQTPPASGYQSPDMKAWQQGAIGNNNVFSQAVQNQPTPAQPGVYNNMSITVSMAGGNTNVQNMNPMMAQMQMSSLQMPGMNTVCPEQINDPALRHTGLYCNQLSSTDLLKTEADGTQQVQQVQVFADVQCTVNLVGGDPYLNQPGPLGTQKPTSGPQTPQAQQKSLLQQLLTE
In the case of B1, the “effect on cyclin D1-induced activation of the ER AF-2 mutants” value [1] is reported as “markedly repressed”, the “effect on SRC-1 and TIF2 mediated ER transactivation” value (wild type ER) is reported as “inhibited” and the “effect on E2F-1 transcription factor” value [2] is reported as “inactive”.
